Assay results: patent US7148071B2, “Quantitative, high-throughput screening method for protein stability” (Duke University, priority 2000, dated 2006)
Marks after values point to notes of the source that are not given here. Ends that are not written are not given here.

What was measured:
[1] = SUPREX (H/D exchange detected by MALDI MS) stability of unpurified proteins in crude E. coli lysates; format: physicochemical
[2] = cited from earlier work
[3] = conventional CD denaturation curves of purified proteins; format: physicochemical; conditions: purified protein, pH 8 buffer, FIG. 10A
Experimental: FIGS. 10A–10C depict a conventional denaturation curve by CD with purified protein in 0.15 M NaCl, 20 mM Na2HPO4, 20 mM CH3COONa, pH 8.

[4] = SUPREX analysis of P22 Arc repressor, a homo-dimeric protein; format: physicochemical; conditions: ΔGSUPREX adjusted to standard conditions (1 M dimer)
[5] = molecular target: P22 Arc repressor (Salmonella phage P22, UniProt P03050); assay: SUPREX analysis of P22 Arc repressor in the absence and presence of cognate DNA; format: binding; conditions: Arc dimer 12 μM, absence of DNA, 20 mM phosphate pH=7.4
Source text: . At this concentration the stability of the Arc dimer is less than that detectable by SUPREX. Even with exchange times of several minutes, there is no transition detected in the SUPREX curve. The transition midpoint is shifted off scale to the left; […].

[6] = molecular target: Trp repressor protein (Escherichia coli, UniProt P0A881)
Experimental: The concentration of Trp repressor in these experiments was 20 μM; and in (B) the concentration of L-tryptophan in each SUPREX buffer was 200 μM.

[7] = tested on: E. coli; format: cell-based
Experimental: . […] In FIG. 10B, E. coli placed in various concentrations of urea for 30 minutes were studied at 23° C. (closed circles) and 15° C. (open circles).
(closed circles) and 15° C. (open circles). 1 ml cultures of BL21-(DE3) E. coli were pelleted and resuspended in LB media containing various urea concentrations and incubated for 30 minutes at 15° C. and 23° C. The cells were then pelleted and resuspended in 1 ml of LB media, diluted 1000, plated on LB-agar plates, incubated at 37° C. overnight and the number of colonies were counted.

[8] = high sensitivity SUPREX analysis of RNase A (micro-concentration step); format: physicochemical; conditions: high sensitivity protocol
Experimental: The high sensitivity SUPREX protocol outlined in FIG. 11 is similar to the SUPREX protocol disclosed above, with the exception that protein samples were subjected to a micro-concentration step after H/D exchange and prior to MALDI analysis. This micro-concentration step involved the use of a batch chromatography method utilizing 10 μL C18 SUPROTIPS™ from AmiKa (Columbia, Md.). It was preferred to quench the H/D exchange reaction with TFA (0.25% v/v) prior to binding the deuterated protein samples to the SUPROTIPS™. This facilitated preservation of the deuteration state of the protein. […]
(§1) For both normal and high sensitivity analyses 10 replicate MALDI mass spectra were collected and analyzed to determine an average change in mass relative to the fully protonated sample (ΔMass) at each [GdmCl]. […]
Values for ΔM0, ΔM∞ and ΔGf were obtained by fitting the ΔMass versus [GdmCl] data to equation 1 using SigmaPlot and a nonlinear least squares analysis. value of 8.47 s^−1 was used, which was calculated based on the data of Bai et al (Bai et al., (1993) Proteins 17: 75–86), using the program SPHERE (Zhang, Ph.D. Thesis, Structural Biology and Molecular Biophysics, University of Pennsylvania); and an m value of 3.1 kcal mol^−1M^−1 was used, which was previously determined in other GdmCl-induced equilibrium unfolding experiments on RNase A (Pace et al., (1990) Biochem. 29: 2564–72). […]

[9] = SUPREX analysis of RNase A, normal protocol; format: physicochemical
Experimental: Two different experimental protocols were employed for the SUPREX analysis of RNase A including one for normal analyses and one for high sensitivity analyses. H/D exchange reactions were initiated by combining 1 μL aliquots of a 100 μM solution of RNase A (fully protonated) in 20 mM sodium phosphate buffer (pH 7.4) with 9 μL volumes of 10 different deuterated exchange buffers containing 20 mM sodium phosphate (pD=7.4) and concentrations of GdmCl that varied between 0.5 and 4 M. After a specified exchange time (typically 65 minutes), a 1 μL aliquot of each exchange reaction was combined with 19 μL of a MALDI matrix solution. The MALDI matrix solution, which comprised an ice-cold, saturated, aqueous solution of SA containing 63% MeCN and 0.1% TFA (pH=3.0), effectively a quenched the H/D exchange reaction and prepared the sample for MALDI analysis. This matrix solution also included two internal mass standards, bovine ubiquitin (8566.1 Da) and hen egg lysozyme (14,303.7 Da). Subsequently, 1 μL of the quenched exchange reaction was spotted on a stainless steel MALDI plate and the solvent was evaporated under a gentle flow of air. […]
as §1

[10] = cited from earlier work; remark: listed apart in the source

λ6–85: monomeric form of the N-terminal domain of λ repressor, wild type
ΔGf (kcal/mol) SUPREX [1]: -5.0 ± 0.4 kcal/mol | ΔGf (kcal/mol) CD ([2]; 25° C., purified protein, published values): −4.4 ± 0.2^b kcal/mol | previously reported experimental m value ([2]; measured from CD denaturation curves): 2.1±0.1 kcal mol^−1 M^−1 | stability by CD denaturation (linear extrapolation method) [3]: 6.16 ± 0.13 kcal/mol

P22 Arc repressor: P22 Arc repressor, a homo-dimeric protein (MKGMSKMPQFNLRWPREVLDLVRKVAEENGRSVNSEIYQRVMESFKKEGRIGA; also: homo-dimeric protein; UniProt P03050 1-53, looked up)
standard ΔG value [4]: 11.3 ± 0.2 kcal/mol | maximum ΔGSUPREX value [5]: < 4.0 kcal/mol | previously reported ΔG value ([2]; conventional CD denaturation studies (Bowie et al., 1989)): 11.0 kcal/mol

N[C@@H](Cc1c[nH]c2ccccc12)C(=O)O [L-tryptophan]
ΔGBinding [6]: -3.8 kcal/mol

NC(N)=O [urea]
viability of E. coli cells [7]: does not perturb the viability of the cells

B1: RNase A: bovine pancreatic ribonuclease A (type I-A) (protein, UniProt P61823 27-150, looked up)
Ribonuclease pancreatic: KETAAAKFERQHMDSSTSAASSSNYCNQMMKSRNLTKDRCKPVNTFVHESLADVQAVCSQKNVACKNGQTNCYQSYSTMSITDCRETGSSKYPNCAYKTTQANKHIIVACEGNPYVPVHFDASV
average ΔGf value and standard deviation ([8]; 3 replicate SUPREX analyses): -12.0 ± 0.5 kcal/mol | ΔGf from one SUPREX curve ([8]; standard error of 0.2): -12.4 kcal/mol | ΔGf from one SUPREX curve ([9]; FIG. 12B, standard error of 0.2): -12.9 kcal/mol | average ΔGf value and standard deviation ([9]; three replicate SUPREX analyses): -12.4 ± 0.4 kcal/mol | m value ([10]; GdmCl-induced equilibrium unfolding (Pace et al., 1990)): 3.1 kcal mol^−1M^−1 | ΔGf by conventional fluorescence denaturation ([10]; Pace et al.): -9.24 ± 0.64 kcal/mol
